Measurements taken from patent publication US20230235080A1, “TROPHOBLAST CELL-SURFACE ANTIGEN-2 (TROP-2) ANTIBODIES” (Bionecure Therapeutics, Inc., priority 2020, published 2023).
Read-outs that look alike come from different tables or passages of the source.

T1: human Trop-2-ECD-6His fusion protein (human, UniProt P09758 27-274)
T1 construct: Expressed in a human 293 cell line; also called huTrop-2; human Trop-2 antigen
T1 sequence: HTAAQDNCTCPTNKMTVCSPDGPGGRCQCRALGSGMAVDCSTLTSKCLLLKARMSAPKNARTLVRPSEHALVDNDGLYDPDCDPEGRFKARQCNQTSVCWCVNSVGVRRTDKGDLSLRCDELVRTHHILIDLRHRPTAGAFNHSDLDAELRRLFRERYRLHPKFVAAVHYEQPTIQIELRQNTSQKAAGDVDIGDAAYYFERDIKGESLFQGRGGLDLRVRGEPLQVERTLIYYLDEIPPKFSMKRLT

T2: human Trop-2 on Trop-2 positive cancer cells (human, UniProt P09758 27-323)
T2 sequence (looked up): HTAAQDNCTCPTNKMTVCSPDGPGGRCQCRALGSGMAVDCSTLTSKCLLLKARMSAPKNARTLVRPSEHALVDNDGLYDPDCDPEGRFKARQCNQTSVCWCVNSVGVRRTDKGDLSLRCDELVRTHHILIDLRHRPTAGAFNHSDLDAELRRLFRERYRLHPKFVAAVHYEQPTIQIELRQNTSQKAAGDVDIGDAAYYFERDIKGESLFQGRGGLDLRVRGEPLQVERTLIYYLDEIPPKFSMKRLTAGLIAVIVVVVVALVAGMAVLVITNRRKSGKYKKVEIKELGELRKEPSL

T3: mouse Trop-2-His (mouse, UniProt Q8BGV3 25-270)
T3 sequence (looked up): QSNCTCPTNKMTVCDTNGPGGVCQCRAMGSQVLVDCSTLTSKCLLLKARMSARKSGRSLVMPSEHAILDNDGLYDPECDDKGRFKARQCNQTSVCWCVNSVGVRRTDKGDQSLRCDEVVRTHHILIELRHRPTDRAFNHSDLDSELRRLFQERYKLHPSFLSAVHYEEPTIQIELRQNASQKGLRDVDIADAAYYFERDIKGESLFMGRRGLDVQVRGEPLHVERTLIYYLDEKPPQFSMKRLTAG

T4: human EPCAM-His (human, UniProt P16422 24-265)
T4 construct: also called hEPCAM
T4 sequence (looked up): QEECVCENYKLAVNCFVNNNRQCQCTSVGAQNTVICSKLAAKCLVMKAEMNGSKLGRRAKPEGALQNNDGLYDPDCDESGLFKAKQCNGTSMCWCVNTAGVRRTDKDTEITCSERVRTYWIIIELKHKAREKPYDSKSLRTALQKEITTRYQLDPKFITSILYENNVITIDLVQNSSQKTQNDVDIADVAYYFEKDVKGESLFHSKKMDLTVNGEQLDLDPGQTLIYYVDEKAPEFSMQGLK

B1: humanized IgG #118-2-5 Hu(A2)/LuX (antibody, V domains shown)
VH: QVQLQESGPGLVKPSETLSLTCTVSGFSLTSYGVNWIRQPPGKGLEWIGVMWAGGSTNYNSALMSRVTISKDTSKNQFSLKLSSVTAADTAVYYCARDENWDGAWFAYWGQGTLVTVSS
VL: DIVMTQSPDSLAVSLGERATINCKSSQSLLNSGTRKNYLAWYQQKPGQPPKLLIYWASSRESGVPDRFSGSGSGTDFTLTISSLQAEDVAVYYCKQSYNLFTFGGGTKVEIK
notes: Second round of humanization
B2: humanized IgG #118-2-5 Hu(A3)/LuX (antibody, V domains shown)
VH: QVQLQESGPGLVKPSETLSLTCTVSGFSLTSYGVNWIRQPPGKGLEWIGVMWAGGSTNYNSALMSRVTISVDTSKNQVSLKLSSVTAADTAVYYCARDENWDGAWFAYWGQGTLVTVSS
VL: DIVMTQSPDSLAVSLGERATINCKSSQSLLNSGTRKNYLAWYQQKPGQPPKLLIYWASSRESGVPDRFSGSGSGTDFTLTISSLQAEDVAVYYCKQSYNLFTFGGGTKVEIK
notes: Second round of humanization
B3: humanized IgG #118-2-5 Hu(A4)/LuX (antibody, V domains shown)
VH: QVQLQESGPGLVKPSETLSLTCTVSGFSLTSYGVNWIRQPPGKGLEWIGVMWAGGSTNYNSALMSRVTISVDTSKNQFSLKLSSVQAADTAVYYCARDENWDGAWFAYWGQGTLVTVSS
VL: DIVMTQSPDSLAVSLGERATINCKSSQSLLNSGTRKNYLAWYQQKPGQPPKLLIYWASSRESGVPDRFSGSGSGTDFTLTISSLQAEDVAVYYCKQSYNLFTFGGGTKVEIK
notes: Second round of humanization
B4: humanized IgG #118-2-5 Hu(A5)/LuX (antibody, V domains shown)
VH: QVQLQESGPGLVKPSETLSLTCTVSGFSLTSYGVNWIRQPPGKGLEWIGVMWAGGSTNYNSALMSRVTISVDTSKNQFSLKLSSVTAADTAMYYCARDENWDGAWFAYWGQGTLVTVSS
VL: DIVMTQSPDSLAVSLGERATINCKSSQSLLNSGTRKNYLAWYQQKPGQPPKLLIYWASSRESGVPDRFSGSGSGTDFTLTISSLQAEDVAVYYCKQSYNLFTFGGGTKVEIK
notes: Second round of humanization
B5: humanized IgG #118-2-5 HuA/Lu(X1) (antibody, V domains shown)
VH: QVQLQESGPGLVKPSETLSLTCTVSGFSLTSYGVNWIRQPPGKGLEWIGVMWAGGSTNYNSALMSRVTISVDTSKNQFSLKLSSVTAADTAVYYCARDENWDGAWFAYWGQGTLVTVSS
VL: DIVMTQSPSSLAVSLGERATINCKSSQSLLNSGTRKNYLAWYQQKPGQPPKLLIYWASSRESGVPDRFSGSGSGTDFTLTISSLQAEDVAVYYCKQSYNLFTFGGGTKVEIK
notes: Second round of humanization
B6: humanized IgG #118-2-5 HuA/Lu(X2) (antibody, V domains shown)
VH: QVQLQESGPGLVKPSETLSLTCTVSGFSLTSYGVNWIRQPPGKGLEWIGVMWAGGSTNYNSALMSRVTISVDTSKNQFSLKLSSVTAADTAVYYCARDENWDGAWFAYWGQGTLVTVSS
VL: DIVMTQSPDSLAVSLGERATMNCKSSQSLLNSGTRKNYLAWYQQKPGQPPKLLIYWASSRESGVPDRFSGSGSGTDFTLTISSLQAEDVAVYYCKQSYNLFTFGGGTKVEIK
notes: Second round of humanization
B7: humanized IgG #118-2-5 HuA/Lu(X4) (antibody, V domains shown)
VH: QVQLQESGPGLVKPSETLSLTCTVSGFSLTSYGVNWIRQPPGKGLEWIGVMWAGGSTNYNSALMSRVTISVDTSKNQFSLKLSSVTAADTAVYYCARDENWDGAWFAYWGQGTLVTVSS
VL: DIVMTQSPDSLAVSLGERATINCKSSQSLLNSGTRKNYLAWYQQKPGQPPKLLISWASSRESGVPDRFSGSGSGTDFTLTISSLQAEDVAVYYCKQSYNLFTFGGGTKVEIK
notes: Second round of humanization
B8: humanized IgG #118-2-5 HuA/Lu(X5) (antibody, V domains shown)
VH: QVQLQESGPGLVKPSETLSLTCTVSGFSLTSYGVNWIRQPPGKGLEWIGVMWAGGSTNYNSALMSRVTISVDTSKNQFSLKLSSVTAADTAVYYCARDENWDGAWFAYWGQGTLVTVSS
VL: DIVMTQSPDSLAVSLGERATINCKSSQSLLNSGTRKNYLAWYQQKPGQPPKLLIYWASSRESGVPDRFSGSGSGTDFTLTISSVQAEDVAVYYCKQSYNLFTFGGGTKVEIK
notes: Second round of humanization
B9: humanized IgG #118-2-5 HuA/Lu(X6) (antibody, V domains shown)
VH: QVQLQESGPGLVKPSETLSLTCTVSGFSLTSYGVNWIRQPPGKGLEWIGVMWAGGSTNYNSALMSRVTISVDTSKNQFSLKLSSVTAADTAVYYCARDENWDGAWFAYWGQGTLVTVSS
VL: DIVMTQSPDSLAVSLGERATINCKSSQSLLNSGTRKNYLAWYQQKPGQPPKLLIYWASSRESGVPDRFSGSGSGTDFTLTISSLQAEDLAVYYCKQSYNLFTFGGGTKVEIK
notes: Second round of humanization
B10: humanized IgG #118-2-5 HuA/LuY (antibody, V domains shown)
VH: QVQLQESGPGLVKPSETLSLTCTVSGFSLTSYGVNWIRQPPGKGLEWIGVMWAGGSTNYNSALMSRVTISVDTSKNQFSLKLSSVTAADTAVYYCARDENWDGAWFAYWGQGTLVTVSS
VL: DIVMTQSPSSLAVSLGERATMSCKSSQSLLNSGTRKNYLAWYQQKPGQPPKLLISWASSRESGVPDRFSGSGSGTDFTLTISSVQAEDLAVYYCKQSYNLFTFGGGTKVEIK
notes: Full-length IgG expressed in HEK293-6E cells
B11: humanized IgG #118-2-5 HuB/LuX (antibody, V domains shown)
VH: QVQLKQSGPGLVAPSQSLSITCTVSGFSLTSYGVNWIRQPPGKGLEWIGVMWAGGSTNYNSALMSRVTISVDTSKNQFSLKLSSVTAADTAVYYCARDENWDGAWFAYWGQGTLVTVSS
VL: DIVMTQSPDSLAVSLGERATINCKSSQSLLNSGTRKNYLAWYQQKPGQPPKLLIYWASSRESGVPDRFSGSGSGTDFTLTISSLQAEDVAVYYCKQSYNLFTFGGGTKVEIK
notes: Full-length IgG expressed in HEK293-6E cells; also called 2 (HuB/LuX)
B12: humanized IgG #118-2-5 HuB/LuY (antibody, V domains shown)
VH: QVQLKQSGPGLVAPSQSLSITCTVSGFSLTSYGVNWIRQPPGKGLEWIGVMWAGGSTNYNSALMSRVTISVDTSKNQFSLKLSSVTAADTAVYYCARDENWDGAWFAYWGQGTLVTVSS
VL: DIVMTQSPSSLAVSLGERATMSCKSSQSLLNSGTRKNYLAWYQQKPGQPPKLLISWASSRESGVPDRFSGSGSGTDFTLTISSVQAEDLAVYYCKQSYNLFTFGGGTKVEIK
notes: Full-length IgG expressed in HEK293-6E cells; also called 6 (HuB/LuY)
B13: humanized IgG #118-2-5 HuD/LuX (antibody, V domains shown)
VH: QVQLKESGPGLVAPSETLSITCTVSGFSLTSYGVNWIRQPPGKGLEWLGVMWAGGSTNYNSALMSRLTISKDTSKNQVSLKLSSVQAADTAMYYCARDENWDGAWFAYWGQGTLVTVSS
VL: DIVMTQSPDSLAVSLGERATINCKSSQSLLNSGTRKNYLAWYQQKPGQPPKLLIYWASSRESGVPDRFSGSGSGTDFTLTISSLQAEDVAVYYCKQSYNLFTFGGGTKVEIK
notes: Full-length IgG expressed in HEK293-6E cells; also called 4 (HuD/LuX)
B14: #125-1-5 mouse H14-4/L3-4 (antibody, V domains shown)
VH: QIQLVQSGPELVKPGASVKMSCKASGYTFTTYVIHWVKQKPGQGLEWIGYINPNNDGTKYNEKFKGKATLISDKSSTTAYMEVRGLTSEDSAVYYCARPHFETHAMDYWGQGTSVTVSS
VL: DIQMTQSPSSFSVSLGDSVTITCKASEDIFNRLAWYQQKPGNAPRLLISGATSLETGVPSRFSGGGSGKEYTLSITSLQNEDVATYYCQQYWNTWTFGGGTKLEIK

Experiments:
[1] = target: T1, human Trop-2-ECD-6His fusion protein; experiment: antigen binding ELISA on immobilized human Trop-2-ECD-6His
[2] = target: T2, human Trop-2 on Trop-2 positive cancer …; experiment: cell-based or functional assay
[3] = target: T1, human Trop-2-ECD-6His fusion protein; experiment: antigen binding ELISA on immobilized human Trop-2-ECD-6His; remark: listed apart in the source
mouse Trop-2-His = target: T3, mouse Trop-2-His; experiment: ELISA on coated antigen, one antibody dilution (concentration not given), detected by GAH-HRP; y axis without a label (OD450 by the text)
human EPCAM-His = target: T4, human EPCAM-His; experiment: as above
[4] = target: T2, human Trop-2 on Trop-2 positive cancer …; experiment: cell-based or functional assay; remark: listed apart in the source
[5] = target: T2, human Trop-2 on Trop-2 positive cancer …; experiment: cell-based or functional assay; remark: listed apart in the source

Binder	EC50 [1] [nM]	Internalization rate (flow cytometry, MDA-MB-468 cells) [2] [%]	EC50 [3] [nM]	binding result (mouse Trop-2-His)	binding result (human EPCAM-His)	Internalization rate (flow cytometry, MDA-MB-468 cells) [4] [%]	Internalization rate (flow cytometry, MDA-MB-468 cells) [5] [%]
B1	0.37	14.6	–	–	–	–	–
B2	0.31	55.8	–	–	–	–	–
B3	0.39	52.8	–	–	–	–	–
B4	0.34	11.5	–	–	–	–	–
B5	0.26	48.9	–	–	–	–	–
B6	0.36	43.2	–	–	–	–	–
B7	0.12	61.5	–	–	–	–	–
B8	0.31	19.7	–	–	–	–	–
B9	0.26	46.4	–	–	–	–	–
B10	–	–	0.016	no binding	no binding	-14.7	–
B11	–	–	0.164	no binding	no binding	75	–
B12	–	–	0.004	no binding	no binding	-8.5	–
B13	–	–	0.011	no binding	no binding	-7.8	–
B14	–	–	–	–	–	–	5.5
